# Values quoted from earlier work in patent publication US4177261A, “Pharmaceutical composition and method of stimulating blood circulation and wound healing” (Thera Gesellschaft fur Patentverwertung mbH, priority 1977, dated 1979).
# No end group written: not given here.
# Conditions: intra-cuticular injection
row,Substance,Quantity causing vehement pain reactions
1,kallidin: decapeptide; Bradykinin extended at the amino end by an additional lysine radical,about 0.1 micrograms per 1 milliliter of solution
2,"RPPGFSPFR [Brady kinin, (NH2) arginine-proline-proline-glycine-phenylalanine-serine-proline-phenylalanine-arginine (COOH)]",about 0.1 micrograms per 1 milliliter of solution
